Assay results as given in patent publication US20160046573A1, “IDENTIFYING PATIENT RESPONSE TO S1P RECEPTOR MODULATOR ADMINISTRATION” (Novartis AG, priority 2013, published 2016).

Experiments:
[1] = Inhibition of [14C]BAF312 biotransformation in HLM by CYP-specific chemical inhibitors; settings: for Rate / Relative activity: 5 μM BAF312, HLM 0.1 mg/mL, 90 min
Description: The incubations were carried out in 0.1 M phosphate buffer, pH 7.4. Typical incubations of 200 (or 400) μL total volume were prepared as follows: 10 μL of 100 mM MgCl2 (5 mM), stock solutions of CHAPS, substrate and microsomes or recombinant human cytochrome P450 isoenzymes were added to appropriate volume of the buffer. […] Reaction was started by addition of 20 μL of a fresh 10 mM NADPH (1 mM). The final concentrations are given in parentheses. The final concentrations of organic solvent were maximally 0.5% (v/v). For some experiments, higher incubation volumes were prepared by keeping proportionally the quantity of all solutions. The samples were incubated at 37° C. in a thermomixer (Eppendorf 5355) with agitation at 500 rpm.
The incubation reactions were stopped and the protein was precipitated by addition of an equal volume of ice-cold 0.5% formic acid in acetonitrile. After 30 min at −80° C. (or overnight at −20° C.) the samples were centrifuged at 30,000×g for 15 min. The supernatant was withdrawn. Aliquots were analyzed by LSC (20 μL) and the supernatant was diluted appropriately with water to obtain a final solution containing less than 30% of acetonitrile. For samples with lower concentration in substrate, supernatants were evaporated to about the half of initial volumes under reduced pressure at 40° C. with SpeedVac® concentrator (model AES 2010, Savant Inc., Holbrook, N.Y., USA) then mixed with 0.5% formic acid in acetonitrile to obtain a final solution containing less 30% of acetonitrile. Sample solutions were analyzed by HPLC combined with radiodetection. (for HLPC method, see Section 1.6)
The biotransformation of BAF312 was tested at 5 μM substrate concentration in the presence of the 8 individual chemical inhibitors.

[2] = substrate: CCc1cc(/C(C)=N/OCc2ccc(C3CCCCC3)c(C(F)(F)F)c2)ccc1CN1CC(C(=O)O)C1; experiment: Enzyme mapping: metabolite formation by recombinant P450 isoenzyme; type: in vitro ADME, human; settings: estimated by solving the Michaelis-Menten equation for the 2 substrate concentrations, pH 7.4
Description: (§1) Microsomes prepared from baculovirus infected insect cells (BTI-TN-5B1-4) expressing the following human P450 enzymes and the insect cell membrane preparations (negative control) were obtained from BD Biosciences (Woburn, Mass., USA).
(§2) The final concentrations are given in parentheses.
(§3) After 30 min at −80° C. […] The supernatant was withdrawn. […] Sample solutions were analyzed by HPLC combined with radiodetection. (for HLPC method, see Section 1.6)
Mean specific CYP enzyme concentrations in human liver microsomes were obtained from literature values (Rowland Yeo K, Rostami-Hodjegan A and Trucker GT (2004)] Abundance of cytochromes P450 in human liver: a meta-analysis. Br. J. Clinical Pharmacology; 57:687-688). For some recombinant human CYPs, the enzyme kinetic parameters were estimated by calculation assuming Michaelis-Menten type behavior for the two concentrations used, solving a linear equation system for 2 linear equations with 2 variables: […]
Microsomes prepared from baculovirus infected insect cells (BTI-TN-5B1-4) expressing one single human cytochrome P450 isoenzyme were used to assess the involvement of specific enzymes in the biotransformation of [14C]BAF312. Incubation experiments with a panel of 21 recombinant human CYPs (CYP1A1, 1A2, 1B1, 2A6, 2B6, 2C8, 2C9*1, 2C18, 2C19, 2D6*1, 2E1, 2J2, 3A4, 3A5, 3A7, 4A11, 4F2, 4F3A, 4F3B, 4F12 and CYP19) were conducted under similar conditions for each isoenzyme with 10 and 40 μM BAF312 incubation and 30 pmol CYP/mL for 30 min. […] Lower metabolism activities were also observed in incubation with CYP3A4, while some trace metabolism was detected with other CYP isoenzymes (2B6, 2C8, 2C19, 2J2, 3A5, 1A1).

[3] = substrate: CCc1cc(/C(C)=N/OCc2ccc(C3CCCCC3)c(C(F)(F)F)c2)ccc1CN1CC(C(=O)O)C1; experiment: Enzyme kinetics of [14C]BAF312 metabolism by rhCYP2C9; type: in vitro ADME, human; settings: other: CYP 2C9; obtained from kinetic experiments; pH 7.4
Description: The concentration-dependent kinetics of [^14C]BAF312 biotransformation (total metabolites) in rhCYP2C9 (50 pmol/mL) after 60 minutes incubation was plotted as Michaelis-Menten plot (upper) and as Eadie-Hofstee plot (V vs. V/S, bottom) fitted with substrate inhibition model using substrate concentrations 5-300 μM.
as §1, §2, §3
Enzyme kinetic parameters Vmax and Km of the biotransformation by HLM and major metabolizing enzymes were calculated by using SigmaPlot Version 8.0 (S1), Enzyme Kinetics module Version 1.1 software (SPSS Science Inc., Chicago, Ill., USA). The intrinsic clearance was calculated by the equation: CLint=Vmax/Km.
Enzyme kinetics parameters of the isoenzymes CYP2C9 and CYP3A4 for BAF312 metabolism were determined by incubating different concentrations of [^14C]BAF312 with the isoenzyme.

N[C@@H]1C[C@H]1c1ccccc1 (racemic) [Tranylcypromine]
inhibition of BAF312 metabolism ([1]; 2 μM and 10 μM inhibitor, 5 μM substrate concentration, HLM): 11-29% | Rate ([1]; 2 μM inhibitor): 15.3 pmol/min/mg | Relative activity ([1]; 2 μM inhibitor): 89% | Rate ([1]; 10 μM inhibitor): 12.2 pmol/min/mg | Relative activity ([1]; 10 μM inhibitor): 71%

S=P(N1CC1)(N1CC1)N1CC1 [Triethylenethiophosphoramide]
Rate ([1]; 5 μM inhibitor): 18.3 pmol/min/mg | Relative activity ([1]; 5 μM inhibitor): 106% | Rate ([1]; 20 μM inhibitor): 18.8 pmol/min/mg | Relative activity ([1]; 20 μM inhibitor): 109%

B1: CYP1A1 (Homo sapiens) (protein)
chain: MLFPISMSATEFLLASVIFCLVFWVIRASRPQVPKGLKNPPGPWGWPLIGHMLTLGKNPHLALSRMSQQYGDVLQIRIGSTPVVVLSGLDTIRQALVRQGDDFKGRPDLYTFTLISNGQSMSFSPDSGPVWAARRRLAQNGLKSFSIASDPASSTSCYLEEHVSKEAEVLISTLQELMAGPGHFNPYRYVVVSVTNVICAICFGRRYDHNHQELLSLVNLNNNFGEVVGSGNPADFIPILRYLPNPSLNAFKDLNEKFYSFMQKMVKEHYKTFEKGHIRDITDSLIEHCQEKQLDENANVQLSDEKIINIVLDLFGAGFDTVTTAISWSLMYLVMNPRVQRKIQEELDTVIGRSRRPRLSDRSHLPYMEAFILETFRHSSFVPFTIPHSTTRDTSLKGFYIPKGRCVFVNQWQINHDQKLWVNPSEFLPERFLTPDGAIDKVLSEKVIIFGMGKRKCIGETIARWEVFLFLAILLQRVEFSVPLGVKVDMTPIYGLTMKHACCEHFQMQLRS
notes: purchased BD Biosciences 456211; host or cells: baculovirus infected insect cells (BTI-TN-5B1-4)
Km ([2]; other: CYP 1A1): 25.5 µM | kcat ([2]; other: CYP 1A1): 47.3 pmol/(min · nmol CYP) | kcat/Km ([2]; other: CYP 1A1): 1.9 μL/(min. · nmol CYP)

B2: CYP2C19 (Homo sapiens) (protein)
chain: MDPFVVLVLCLSCLLLLSIWRQSSGRGKLPPGPTPLPVIGNILQIDIKDVSKSLTNLSKIYGPVFTLYFGLERMVVLHGYEVVKEALIDLGEEFSGRGHFPLAERANRGFGIVFSNGKRWKEIRRFSLMTLRNFGMGKRSIEDRVQEEARCLVEELRKTKASPCDPTFILGCAPCNVICSIIFQKRFDYKDQQFLNLMEKLNENIRIVSTPWIQICNNFPTIIDYFPGTHNKLLKNLAFMESDILEKVKEHQESMDINNPRDFIDCFLIKMEKEKQNQQSEFTIENLVITAADLLGAGTETTSTTLRYALLLLLKHPEVTAKVQEEIERVIGRNRSPCMQDRGHMPYTDAVVHEVQRYIDLIPTSLPHAVTCDVKFRNYLIPKGTTILTSLTSVLHDNKEFPNPEMFDPRHFLDEGGNFKKSNYFMPFSAGKRICVGEGLARMELFLFLTFILQNFNLKSLIDPKDLDTTPVVNGFASVPPFYQLCFIPV
notes: purchased BD Biosciences 456259; host or cells: baculovirus infected insect cells (BTI-TN-5B1-4)
Km ([2]; other: CYP 2C19): 140 µM | kcat ([2]; other: CYP 2C19): 100 pmol/(min · nmol CYP) | kcat/Km ([2]; other: CYP 2C19): 0.7 μL/(min. · nmol CYP)

B3: CYP2J2 (Homo sapiens) (protein)
chain: MLAAMGSLAAALWAVVHPRTLLLGTVAFLLAADFLKRRRPKNYPPGPWRLPFLGNFFLVDFEQSHLEVQLFVKKYGNLFSLELGDISAVLITGLPLIKEALIHMDQNFGNRPVTPMREHIFKKNGLIMSSGQAWKEQRRFTLTALRNFGLGKKSLEERIQEEAQHLTEAIKEENGQPFDPHFKINNAVSNIICSITFGERFEYQDSWFQQLLKLLDEVTYLEASKTCQLYNVFPWIMKFLPGPHQTLFSNWKKLKLFVSHMIDKHRKDWNPAETRDFIDAYLKEMSKHTGNPTSSFHEENLICSTLDLFFAGTETTSTTLRWALLYMALYPEIQEKVQAEIDRVIGQGQQPSTAARESMPYTNAVIHEVQRMGNIIPLNVPREVTVDTTLAGYHLPKGTMILTNLTALHRDPTEWATPDTFNPDHFLENGQFKKREAFMPFSIGKRACLGEQLARTELFIFFTSLMQKFTFRPPNNEKLSLKFRMGITISPVSHRLCAVPQV
notes: purchased BD Biosciences 456264; host or cells: baculovirus infected insect cells (BTI-TN-5B1-4)
Km ([2]; other: CYP 2J2): 374 µM | kcat ([2]; other: CYP 2J2): 106.7 pmol/(min · nmol CYP) | kcat/Km ([2]; other: CYP 2J2): 0.3 μL/(min. · nmol CYP)

B4: rhCYP2C9 (Homo sapiens) (protein)
chain: MDSLVVLVLCLSCLLLLSLWRQSSGRGKLPPGPTPLPVIGNILQIGIKDISKSLTNLSKVYGPVFTLYFGLKPIVVLHGYEAVKEALIDLGEEFSGRGIFPLAERANRGFGIVFSNGKKWKEIRRFSLMTLRNFGMGKRSIEDRVQEEARCLVEELRKTKASPCDPTFILGCAPCNVICSIIFHKRFDYKDQQFLNLMEKLNENIKILSSPWIQICNNFSPIIDYFPGTHNKLLKNVAFMKSYILEKVKEHQESMDMNNPQDFIDCFLMKMEKEKHNQPSEFTIESLENTAVDLFGAGTETTSTTLRYALLLLLKHPEVTAKVQEEIERVIGRNRSPCMQDRSHMPYTDAVVHEVQRYIDLLPTSLPHAVTCDIKFRNYLIPKGTTILISLTSVLHDNKEFPNPEMFDPHHFLDEGGNFKKSKYFMPFSAGKRICVGEALAGMELFLFLTSILQNFNLKSLVDPKNLDTTPVVNGFASVPPFYQLCFIPV
notes: purchased BD Biosciences 456258; host or cells: baculovirus infected insect cells (BTI-TN-5B1-4)
Km [3]: 34.5 µM | kcat [3]: 2596 ± 233 pmol/min/nmol | kcat/Km [3]: 1250 M⁻¹ s⁻¹

B5: CYP2C8 (Homo sapiens) (protein)
chain: MEPFVVLVLCLSFMLLFSLWRQSCRRRKLPPGPTPLPIIGNMLQIDVKDICKSFTNFSKVYGPVFTVYFGMNPIVVFHGYEAVKEALIDNGEEFSGRGNSPISQRITKGLGIISSNGKRWKEIRRFSLTTLRNFGMGKRSIEDRVQEEAHCLVEELRKTKASPCDPTFILGCAPCNVICSVVFQKRFDYKDQNFLTLMKRFNENFRILNSPWIQVCNNFPLLIDCFPGTHNKVLKNVALTRSYIREKVKEHQASLDVNNPRDFIDCFLIKMEQEKDNQKSEFNIENLVGTVADLFVAGTETTSTTLRYGLLLLLKHPEVTAKVQEEIDHVIGRHRSPCMQDRSHMPYTDAVVHEIQRYSDLVPTGVPHAVTTDTKFRNYLIPKGTTIMALLTSVLHDDKEFPNPNIFDPGHFLDKNGNFKKSDYFMPFSAGKRICAGEGLARMELFLFLTTILQNFNLKSVDDLKNLNTTAVTKGIVSLPPSYQICFIPV
notes: purchased BD Biosciences 456252; host or cells: baculovirus infected insect cells (BTI-TN-5B1-4)
Km ([2]; other: CYP 2C8): 2.9 µM | kcat ([2]; other: CYP 2C8): 14.3 pmol/(min · nmol CYP) | kcat/Km ([2]; other: CYP 2C8): 5 μL/(min. · nmol CYP)
